According to paper PMC3230118:
pKd: −log10 of the molar value.

Target: Ub-NpuN fusion protein bearing the wild-type N-intein sequence (NpuNWT), C1A (not stated | Nostoc punctiforme) (UniProt P0CG48)
Test: other fluorescence titration

pKd: 8.54
Substance: NpuC-SUMO fusion protein bearing the wild-type C-intein sequence (NpuCWT) (domain or fragment)
